This is an account of results in patent US20150203581A1 (Genentech, published 2015).

Where two headings read alike, the source gives them in different places.

Test [1] has as its target T1, recombinant human integrin α5β1 (human, UniProt P08648 42-995; P05556 21-728). As to the kind of experiment: cell-based or functional assay.
Test [2] deals with T1, recombinant human integrin α5β1. As to the kind of experiment: SPR (BIAcore), antibody as hIgG is the captured ligand, Human Integrin α5β1 (R&D) is the analyte. As for the experimental part:
(§1) To determine binding kinetics and affinities of the antibodies described herein, Surface Plasmon Resonance (SRP) measurement with a BIAcore™-3000 instrument was used. Antibody was first captured by pre-immobilized rabbit anti-human Fc CM5 biosensor chip on the different flow cell to achieve approximately 150 RU (Response Units). For kinetics measurements, 2-fold serial dilutions of human integrin α5β1 (300 nM to 1.2 nM) were injected in PBT buffer (PBS with 0.05% Tween 20) at 25° C. with a flow rate of 30 μl/min. Association rates (kₒₙ) and dissociation rates (koff) were calculated using a simple one-to-one Langmuir binding model (BIAcore Evaluation Software version 3.2). The equilibrium dissociation constant (KD) was calculated as the ratio koff/kₒₙ.
(§2) To determine binding kinetics and affinities of chimeric 18C12, h18C12.v6.1, h18C12.v6.1.1, h18C12.v6.1.2, h18C12.v6.1.3, h18C12.v6.1.4, h18C12.v6.1.5 IgGs, Surface Plasmon Resonance (SRP) measurement with a BIAcore™-3000 instrument as described in Example 1 was used.
In general terms: In SPR one partner is held on a chip, and binding of the other changes the refractive index at the surface.

Test [3] has the same target. As to the kind of experiment: SPR (BIAcore), IgG captured on anti-human Fc chip, Human Integrin α5β1 (R&D) as analyte. The protocol:
as §1, §2

The target is the same in test [4]. The test is described as follows: SPR (BIAcore), antibody as hIgG is the captured ligand, Human Integrin α5β1 (R&D) is the analyte. As for the experimental part:
as §1
This is another data set of the same source.

The target is the same in test [5]. As to the kind of experiment: phage competition ELISA: Fab-displaying phage pre-incubated with serially diluted soluble human integrin α5β1, unbound phage captured on plate-coated human integrin α5β1, anti-M13-HRP detection. The protocol: MAXISORP™ microtiter plates were coated with recombinant human integrin β5β1 (R&D) at 5 μg/ml in PBS overnight and then blocked with PBST buffer (0.5% BSA and 0.05% Tween 20 in PBS) for an hour at room temperature. Phage from culture supernatants were incubated with serially diluted human integrin α5β1 in PBST buffer in a tissue-culture microtiter plate for an hour, after which 80 μl of the mixture was transferred to the target-coated wells for 15 minutes to capture unbound phage. The plate was washed with PBT buffer (0.05% Tween 20 in PBS), and HRP-conjugated anti-M13 (Amersham Pharmacia Biotech) was added (1:5000 in PBST buffer) for 40 minutes. The plate was washed with PBT buffer and developed by adding tetramethylbenzidine substrate (Kirkegaard and Perry Laboratories, Gaithersburg, Md.). The absorbance at 450 nm was plotted as a function of target concentration in solution to determine phage IC₅₀.
Background: ELISA stands for enzyme-linked immunosorbent assay.

For test [6] the target is unchanged. As to the kind of experiment: BIAcore SPR, IgG captured by anti-human Fc, human integrin α5β1 as analyte. As for the experimental part: as §1, §2
The target is the same in test [7]. The test is described as follows: cell-based or functional assay. This is another data set of the same source.
Test [8] addresses T2, recombinant α5β1 extracellular domain.
T2 construct: extracellular domain; also called α5β1 (R & D Systems)
As to the kind of experiment: blocking ELISA: antibody titrated and premixed with recombinant α5β1 (R&D), then added to fibronectin-coated wells; bound α5β1 detected with anti-β1-biotin / streptavidin-HRP (OD450); the blocked ligand is fibronectin. As for the experimental part: anti-β5β1 antibody (30 μg/mL) was serially diluted 1:3 11 times. 50 μl of the serially diluted anti-β5β1 antibody was added to 0.65 mL micro tubes and premixed (1:1) with 50 μL of 200 ng/mL […] (R & D Systems) in ELISA buffer (150 mM NaCl, 10 mM Tris, pH 7.5, 5 mg/mL BSA, 1 mM MnCl₂) for 60 minutes at room temperature with gentle agitation. 25 μL of the premixed α5β1 and anti-β5β1 antibody was added to the Fibronectin coated wells and the plates were incubated at room temperature for 60 minutes with gentle agitation. Plates were washed 6 times with PBT buffer, 100 ng/mL anti-β1-biotin in ELISA buffer was added to each well and the plates were incubated for 60 minutes at room temperature with gentle agitation. Plates were washed 6 times with 80 μL PBT buffer, 25 μL of Streptadvidin-HRP (1:50,000 in ELISA buffer, GE Healthcare) was added to each well, and the plates were incubated for 60 minutes at room temperature with gentle agitation. Plates were washed 6 times with 80 μL PBT buffer, 25 μl of TMB substrate (Kirkgaard and Perry Laboratories) was added to each well, plates were incubated about 6 minutes at room temperature, and the reaction was stopped with 25 μL of 1 M Phosphoric Acid. Absorbance was read at 450 nm and IC₅₀ values were analyzed as described in section B above. […]

T1 sequence (P08648 42-995 limits assumed, chain 1 of 2): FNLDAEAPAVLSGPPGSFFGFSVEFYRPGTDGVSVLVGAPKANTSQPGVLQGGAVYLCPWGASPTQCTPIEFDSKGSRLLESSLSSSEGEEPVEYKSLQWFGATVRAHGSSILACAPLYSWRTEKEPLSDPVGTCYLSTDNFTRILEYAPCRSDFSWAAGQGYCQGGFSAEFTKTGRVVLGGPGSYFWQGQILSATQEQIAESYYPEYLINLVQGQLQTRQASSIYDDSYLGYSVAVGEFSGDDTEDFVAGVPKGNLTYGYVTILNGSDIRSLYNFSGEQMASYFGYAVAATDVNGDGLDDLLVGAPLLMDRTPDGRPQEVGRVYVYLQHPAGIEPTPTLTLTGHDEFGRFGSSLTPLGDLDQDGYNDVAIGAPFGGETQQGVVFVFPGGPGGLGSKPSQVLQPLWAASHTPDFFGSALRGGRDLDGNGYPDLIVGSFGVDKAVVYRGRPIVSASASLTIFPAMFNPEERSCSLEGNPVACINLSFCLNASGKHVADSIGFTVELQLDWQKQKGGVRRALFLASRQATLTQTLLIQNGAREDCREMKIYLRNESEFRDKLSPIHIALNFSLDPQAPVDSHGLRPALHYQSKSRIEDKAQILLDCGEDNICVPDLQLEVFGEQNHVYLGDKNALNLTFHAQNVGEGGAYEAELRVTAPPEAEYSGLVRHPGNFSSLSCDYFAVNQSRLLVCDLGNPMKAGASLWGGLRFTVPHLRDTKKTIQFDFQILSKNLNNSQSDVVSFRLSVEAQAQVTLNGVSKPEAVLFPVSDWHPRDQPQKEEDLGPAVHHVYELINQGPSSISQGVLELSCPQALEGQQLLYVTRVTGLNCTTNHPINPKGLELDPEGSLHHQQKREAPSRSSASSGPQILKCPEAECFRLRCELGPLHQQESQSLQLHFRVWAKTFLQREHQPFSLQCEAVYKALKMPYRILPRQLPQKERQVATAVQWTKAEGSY
T1 sequence (P05556 21-728 limits assumed, chain 2 of 2): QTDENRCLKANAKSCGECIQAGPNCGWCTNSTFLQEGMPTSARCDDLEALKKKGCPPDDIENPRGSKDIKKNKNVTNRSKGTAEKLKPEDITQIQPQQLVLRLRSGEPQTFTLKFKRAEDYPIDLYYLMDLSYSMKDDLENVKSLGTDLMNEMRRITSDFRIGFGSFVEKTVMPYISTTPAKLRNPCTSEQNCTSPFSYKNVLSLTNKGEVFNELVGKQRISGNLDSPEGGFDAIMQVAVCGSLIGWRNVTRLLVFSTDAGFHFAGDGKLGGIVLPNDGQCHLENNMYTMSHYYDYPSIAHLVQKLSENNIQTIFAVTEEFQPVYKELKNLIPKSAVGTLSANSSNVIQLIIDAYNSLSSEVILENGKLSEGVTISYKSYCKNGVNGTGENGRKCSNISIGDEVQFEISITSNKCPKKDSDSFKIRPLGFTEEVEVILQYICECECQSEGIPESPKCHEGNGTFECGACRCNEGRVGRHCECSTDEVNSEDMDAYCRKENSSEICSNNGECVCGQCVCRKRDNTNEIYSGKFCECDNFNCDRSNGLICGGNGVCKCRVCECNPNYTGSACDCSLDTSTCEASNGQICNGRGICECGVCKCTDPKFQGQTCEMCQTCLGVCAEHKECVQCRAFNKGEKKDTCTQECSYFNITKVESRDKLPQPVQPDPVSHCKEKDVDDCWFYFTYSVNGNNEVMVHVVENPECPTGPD
T2 sequence (P08648 42-995, chain 1 of 2): as the sequence (P08648 42-995 limits assumed, chain 1 of 2) above
T2 sequence (P05556 21-728, chain 2 of 2, further chain): as the sequence (P05556 21-728 limits assumed, chain 2 of 2) above

B1: chimeric 18C12 (antibody, V domains shown)
VH: EVHLVESGGDLVQPGSSLKLSCAASGFTFSNRWIYWVRQAPGKGLEWVGGIKTKPNIYATEYADSVKGRFTISRDDSKNSLYLQMNTLRVDDTAIYYCTSLTGMRYFDYWGQGT
VL: QPVLTQSPSASASLGNSVKITCTLSSQHSTYTIGWYQQHPDKAPKYVMYLNSDGSHNKGDGIPDRFSGSSSGAHRYLSISNIQPEDEADYFCGSSYSSGYVFGSGT
notes: also called chimeric 18C12 IgG
For the molecule B1, the “IC50 for inhibition of adhesion of U937 cells to plate-coated fibronectin (Cell-Titer Glo luminescence); the target is α5β1 on the U937 cells” value (from here on “IC50 for inhibition”) in test [1] came out at 159 pM. Also, in test [2], the Kd came out at 7.68 nM, the koff was found to be 0.000922 s⁻¹ and the on-rate (kon) is 120000 M⁻¹ s⁻¹.

B2: h18C12.v6.1.2 (antibody, V domains shown)
VH: EVQLVESGGGLVQPGGSLRLSCAASGFTFSARWIYWVRQAPGKGLEWVGGIKTKPAIYATEYADSVKGRFTISRDDSKNTLYLQMNSLRAEDTAVYYCARLTGMKYFDYWGQGT
VL: SSELTQDPAVSVALGQTVRITCTLSSQHSTYTIGWYQQKPGQAPVYLMYLNSDGSHNKGSGIPDRFSGSSSGATRSLTITNAQAEDEADYYCAAYYAYGYVFGGGT
notes: copies: 2 + 2
As to B2, in test [3], the Kd came out at 13.5 nM, the koff is 0.000643 s⁻¹ and the kon was found to be 48000 M⁻¹ s⁻¹.

B3: h18C12.v3 (Fab, V domains shown)
VH: EVQLVESGGGLVQPGGSLRLSCAASGFTFSNRWIYWVRQAPGKGLEWVGGIKTKPNIYATEYADSVKGRFTISRDDSKNTLYLQMNSLRAEDTAVYYCARLTGMRYFDYWGQGT
VL: EPVLTQSPSASASLGASVKLTCTLSSQHSTYTIGWYQQQPGKAPRYLMYLNSDGSHNKGDGIPDRFSGSSSGADRYLTISNLQSEDEADYYCGSSYSSGYVFGGGT
notes: also called Humanized 18C12.v3; h18C12.v3 parental clone
For B3, in test [4], the Kd turned out to be 11.5 nM, the koff was 0.000807 s⁻¹ and the kon is 71000 M⁻¹ s⁻¹. The IC50 in test [5] stood at 0.72 nM.

B4: h18C12.v6 (Fab, V domains shown)
VH: EVQLVESGGGLVQPGGSLRLSCAASGFTFSNRWIYWVRQAPGKGLEWVGGIKTKPNIYATEYADSVKGRFTISRDDSKNTLYLQMNSLRAEDTAVYYCARLTGMKYFDYWGQGT
VL: EPVLTQSPSASASLGASVKLTCTLSSQHSTYTIGWYQQQPGKAPRYLMYLNSDGSHNKGDGIPDRFSGSSSGADRYLTISNLQSEDEADYYCAAYYAYGYVFGGGT
On to B4, for which, in test [4], the Kd stood at 4.8 nM, the koff amounted to 0.00075 s⁻¹ and the kon stood at 174000 M⁻¹ s⁻¹. Further, in test [5], the IC50 turned out to be 0.41 nM.

B5: h18C12.v6.1Lam3 (antibody, V domains shown)
VH: EVQLVESGGGLVQPGGSLRLSCAASGFTFSARWIYWVRQAPGKGLEWVGGIKTKPAIYATEYADSVKGRFTISRDDSKNTLYLQMNSLRAEDTAVYYCARLTGMKYFDYWGQGT
VL: SSELTQDPAVSVALGQTVRITCTLSSQHSTYTIGWYQQKPGQAPVYLMYLNSSGSHNKGSGIPDRFSGSSSGATRSLTITNAQAEDEADYYCAAYYAYGYVFGGGT
notes: CDRs come from h18C12.v6 with changes in CDR-L2 (D50cS, D56S), CDR-H1 (N31A) and CDR-H2 (N53A); The human λIII framework carries L46Y, V47L, I48M, N69A, A71R and G77N
In the case of B5, the “IC50 for inhibition” value in test [1] amounted to 207 pM. For the same molecule, in test [6], the “fold higher binding affinity than hamster 18C12” value was roughly 2 fold. In test [2], the Kd was 4 nM, the koff came out at 0.000386 s⁻¹ and the kon amounted to 97000 M⁻¹ s⁻¹.

B6: h18C12.v6.1.5 (antibody, V domains shown)
VH: EVQLVESGGGLVQPGGSLRLSCAASGFTFSARWIYWVRQAPGKGLEWVGGIKTKPAIYATEYADSVKGRFTISRDDSKNTLYLQMNSLRAEDTAVYYCARLTGMKYFDYWGQGT
VL: SSELTQDPAVSVALGQTVRITCTLSSQHSTYTIGWYQQKPGQAPVYLMYLNSDSSHNKGSGIPDRFSGSSSGATRSLTITNAQAEDEADYYCAAYYAYGYVFGGGT
notes: Derived from h18C12.v6.1 by removing Asn in CDR-L2 positions 50a-50d; also called anti-α5β1 antibody h18C12.v6.1.5
For B6, in test [7], the “IC50 for inhibition” value amounted to 126 pM. In test [3], the Kd came to 15.5 nM, the koff stood at 0.000659 s⁻¹ and the kon was 43000 M⁻¹ s⁻¹. Moreover, the IC50 in test [8] is 0.077 nM.

One may read the Kd as the concentration at which binding is half-saturated. Broadly, the koff is the rate constant with which the complex falls apart. Usually kon stands for a measure of how fast the partners come together. As a reminder, the IC50 is the concentration that inhibits the measured activity by half.
